Results reported in IntAct's records for PubMed 22872700.

B1: Contactin-associated protein-like 2 (Homo sapiens), Q9UHC6-1 (parent)
chain: MQAAPRAGCGAALLLWIVSSCLCRAWTAPSTSQKCDEPLVSGLPHVAFSSSSSISGSYSPGYAKINKRGGAGGWSPSDSDHYQWLQVDFGNRKQISAIATQGRYSSSDWVTQYRMLYSDTGRNWKPYHQDGNIWAFPGNINSDGVVRHELQHPIIARYVRIVPLDWNGEGRIGLRIEVYGCSYWADVINFDGHVVLPYRFRNKKMKTLKDVIALNFKTSESEGVILHGEGQQGDYITLELKKAKLVLSLNLGSNQLGPIYGHTSVMTGSLLDDHHWHSVVIERQGRSINLTLDRSMQHFRTNGEFDYLDLDYEITFGGIPFSGKPSSSSRKNFKGCMESINYNGVNITDLARRKKLEPSNVGNLSFSCVEPYTVPVFFNATSYLEVPGRLNQDLFSVSFQFRTWNPNGLLVFSHFADNLGNVEIDLTESKVGVHINITQTKMSQIDISSGSGLNDGQWHEVRFLAKENFAILTIDGDEASAVRTNSPLQVKTGEKYFFGGFLNQMNNSSHSVLQPSFQGCMQLIQVDDQLVNLYEVAQRKPGSFANVSIDMCAIIDRCVPNHCEHGGKCSQTWDSFKCTCDETGYSGATCHNSIYEPSCEAYKHLGQTSNYYWIDPDGSGPLGPLKVYCNMTEDKVWTIVSHDLQMQTPVVGYNPEKYSVTQLVYSASMDQISAITDSAEYCEQYVSYFCKMSRLLNTPDGSPYTWWVGKANEKHYYWGGSGPGIQKCACGIERNCTDPKYYCNCDADYKQWRKDAGFLSYKDHLPVSQVVVGDTDRQGSEAKLSVGPLRCQGDRNYWNAASFPNPSSYLHFSTFQGETSADISFYFKTLTPWGVFLENMGKEDFIKLELKSATEVSFSFDVGNGPVEIVVRSPTPLNDDQWHRVTAERNVKQASLQVDRLPQQIRKAPTEGHTRLELYSQLFVGGAGGQQGFLGCIRSLRMNGVTLDLEERAKVTSGFISGCSGHCTSYGTNCENGGKCLERYHGYSCDCSNTAYDGTFCNKDVGAFFEEGMWLRYNFQAPATNARDSSSRVDNAPDQQNSHPDLAQEEIRFSFSTTKAPCILLYISSFTTDFLAVLVKPTGSLQIRYNLGGTREPYNIDVDHRNMANGQPHSVNITRHEKTIFLKLDHYPSVSYHLPSSSDTLFNSPKSLFLGKVIETGKIDQEIHKYNTPGFTGCLSRVQFNQIAPLKAALRQTNASAHVHIQGELVESNCGASPLTLSPMSSATDPWHLDHLDSASADFPYNPGQGQAIRNGVNRNSAIIGGVIAVVIFTILCTLVFLIRYMFRHKGTYHTNEAKGAESAESADAAIMNNDPNFTETIDESKKEWLI
partner: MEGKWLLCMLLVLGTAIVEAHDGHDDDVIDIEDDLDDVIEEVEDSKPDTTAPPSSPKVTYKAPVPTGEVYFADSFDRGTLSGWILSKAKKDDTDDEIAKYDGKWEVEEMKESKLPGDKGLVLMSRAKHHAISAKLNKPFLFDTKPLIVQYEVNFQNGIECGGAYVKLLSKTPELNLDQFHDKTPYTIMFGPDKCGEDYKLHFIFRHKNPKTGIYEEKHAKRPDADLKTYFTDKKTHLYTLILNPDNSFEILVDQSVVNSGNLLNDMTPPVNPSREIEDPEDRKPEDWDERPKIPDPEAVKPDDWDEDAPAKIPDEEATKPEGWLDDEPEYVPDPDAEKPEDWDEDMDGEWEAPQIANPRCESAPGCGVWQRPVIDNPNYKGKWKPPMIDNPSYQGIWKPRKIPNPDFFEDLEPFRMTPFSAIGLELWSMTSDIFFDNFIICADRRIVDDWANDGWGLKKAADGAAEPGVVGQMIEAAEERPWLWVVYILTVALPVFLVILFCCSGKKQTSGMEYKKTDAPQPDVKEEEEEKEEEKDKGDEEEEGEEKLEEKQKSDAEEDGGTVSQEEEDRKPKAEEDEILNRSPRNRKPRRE

Variants of: B1
Conditions: with calx_human CANX

effect of a mutation on the interaction	Variant
increasing interaction strength	D1129H
